Consider one molecule from publication PMC12813979, “A Site-Specific Self-Association of a Protein Hub Drives Its Phase Separation” (ACS Chemical Biology, 2025).

* marks the point of attachment. Biotin = O=C1N[C@H]2[C@H](CS[C@H]2CCCCC(=O)*)N1

In general, Kd refers to the constant that tells how readily two partners part at equilibrium. Low readings indicate higher affinity, high ones lower affinity. Usually koff stands for the rate constant with which the complex falls apart. The low end stands for slow dissociation, the high end for fast dissociation. As usually defined, the kon is the second-order rate constant of association. High values mean faster complex formation, low ones slower complex formation.

For assay [1], the target named is WD40 repeat protein 5 (WDR5), full-length (human, UniProt P61964 1-334). Nature of the assay: BLI; biotinylated MLL3Win peptide immobilised on streptavidin sensors; WDR5 (0.11-9.0 µM) or ΔN-WDR5 (0.10-9.0 µM) in the wells; 150 mM KCl, 20 mM Tris-HCl, 1 mM TCEP, 1 mg/mL BSA, pH 7.5; global fit of kon and koff, KD derived indirectly from them; triplicates. The conditions noted are these: both partners purified. In general terms: In BLI a coated tip is dipped into the sample, and binding shifts an interference pattern.

The target of assay [2] is N-terminus truncated WDR5, WDR5 23-334 (human, UniProt P61964 23-334). The description is as above. The note with it: both partners purified.

B1: Win-like motif-based peptide ligand of mixed lineage leukemia 3 (MLL3Win) (peptide)
chain: Biotin-VNPTGCARSEPKMS-NH2
SMILES: CSCC[C@H](NC(=O)[C@H](CCCCN)NC(=O)[C@@H]1CCCN1C(=O)[C@H](CCC(=O)O)NC(=O)[C@H](CO)NC(=O)[C@H](CCCNC(=N)N)NC(=O)[C@H](C)NC(=O)[C@H](CS)NC(=O)CNC(=O)[C@@H](NC(=O)[C@@H]1CCCN1C(=O)[C@H](CC(N)=O)NC(=O)[C@@H](NC(=O)CCCC[C@@H]1SC[C@@H]2NC(=O)N[C@@H]21)C(C)C)[C@@H](C)O)C(=O)N[C@@H](CO)C(N)=O
In assay [1], B1 registered a Kd of 190 nM, a koff of 0.012 s⁻¹ and a kon of 66000 M⁻¹ s⁻¹. Moreover, in assay [2], the affinity, expressed as Kd, was 170 nM; the koff turned out to be 0.0097 s⁻¹; the kon stood at 63000 M⁻¹ s⁻¹.
